Experimental data from publication PMC3706335, “Biophysical characterization and crystal structure of the Feline Immunodeficiency Virus p15 matrix protein” (Retrovirology, 2013).

Assays:
[1] = biological target: the molecule itself; experiment: cross-linking; BS3, room temperature, SDS-PAGE; protein at 6 mg/ml in 50 mM MES pH 6
[2] = biological target: the molecule itself; experiment: SEC-MALS; 0.2 ml of his-tagged p15 at 6 mg/ml in 50 mM MES pH 6 on Superdex 200 10/30 in 50 mM MES pH 6
[3] = biological target: the molecule itself; experiment: ITC; dilution experiment, dimer to monomers: p15 at 6 mg/ml (375 μM) in 50 mM MES pH 6 injected into buffer alone, 25°C, dimer dissociation model

Protein | binding result [1] | stoichiometry N [2] | Kd [3] [µM]
FIV p15-Δ120, C-terminal-truncated p15 (truncated after Ser120) with C-terminal 6-His tag (domain or fragment, matrix protein p15 of the Gag polyprotein of Feline Immunodeficiency Virus, Petaluma strain, truncated after Ser120 (lacks the last 14 residues); residues 2 to 120 seen in the crystal; also called truncated FIV p15; not shown: His6, C-terminal, kept) MGNGQGRDWKMAIKRCSNVAVGVGGKSKKFGEGNFRWAIRMANVSTGREPGDIPETLDQLRLVICDLQERREKFGSSKEIDMAIVTLKVFAVAGLLNMTVSTAAAAENMYSQMGLDTRPS | binds |  | 
FIV p15-Δ120-R40S (domain or fragment, matrix protein p15 of the Gag polyprotein of Feline Immunodeficiency Virus, truncated after Ser120 as m3, with Arg40 mutated to serine; Made from the truncated p15 construct) MGNGQGRDWKMAIKRCSNVAVGVGGKSKKFGEGNFRWAISMANVSTGREPGDIPETLDQLRLVICDLQERREKFGSSKEIDMAIVTLKVFAVAGLLNMTVSTAAAAENMYSQMGLDTRPS | binds |  | 
FIV p15 matrix protein, full-length, with C-terminal 6-His tag (natural protein, matrix protein p15, the N-terminal subunit of the Gag polyprotein of Feline Immunodeficiency Virus, Petaluma strain (plasmid FIV-34TF10); not myristoylated; also called p15-His; full-length p15; not shown: His6, C-terminal, kept) MGNGQGRDWKMAIKRCSNVAVGVGGKSKKFGEGNFRWAIRMANVSTGREPGDIPETLDQLRLVICDLQERREKFGSSKEIDMAIVTLKVFAVAGLLNMTVSTAAAAENMYSQMGLDTRPSMKEAGGKEEGPPQAY |  | 2 | ~10
